Laboratory results reported in IntAct's records for PubMed 18093920.

B1: Syndecan-4 (Homo sapiens), P31431 (parent)
chain: MAPARLFALLLFFVGGVAESIRETEVIDPQDLLEGRYFSGALPDDEDVVGPGQESDDFELSGSGDLDDLEDSMIGPEVVHPLVPLDNHIPERAGSGSQVPTEPKKLEENEVIPKRISPVEESEDVSNKVSMSSTVQGSNIFERTEVLAALIVGGIVGILFAVFLILLLMYRMKKKDEGSYDLGKKPIYKKAPTNEFYA
B2: Syndecan-2 (Homo sapiens), P34741 (parent)
chain: MRRAWILLTLGLVACVSAESRAELTSDKDMYLDNSSIEEASGVYPIDDDDYASASGSGADEDVESPELTTSRPLPKILLTSAAPKVETTTLNIQNKIPAQTKSPEETDKEKVHLSDSERKMDPAEEDTNVYTEKHSDSLFKRTEVLAAVIAGGVIGFLFAIFLILLLVYRMRKKDEGSYDLGERKPSSAAYQKAPTKEFYA
partner: B1 chain
B3: Syndecan-2 (Homo sapiens), P34741 (parent)
chain: B2 chain
partner: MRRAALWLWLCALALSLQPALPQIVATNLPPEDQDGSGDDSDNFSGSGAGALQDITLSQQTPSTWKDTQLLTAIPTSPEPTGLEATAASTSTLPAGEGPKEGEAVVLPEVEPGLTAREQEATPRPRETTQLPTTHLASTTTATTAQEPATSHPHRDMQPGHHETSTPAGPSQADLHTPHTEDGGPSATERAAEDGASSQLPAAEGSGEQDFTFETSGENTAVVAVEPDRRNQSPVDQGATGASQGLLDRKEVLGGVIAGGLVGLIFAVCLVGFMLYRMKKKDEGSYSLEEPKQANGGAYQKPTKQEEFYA
B4: Syndecan-3 (Homo sapiens), O75056 (parent)
chain: MKPGPPHRAGAAHGAGAGAGAAAGPGARGLLLPPLLLLLLAGRAAGAQRWRSENFERPVDLEGSGDDDSFPDDELDDLYSGSGSGYFEQESGIETAMRFSPDVALAVSTTPAVLPTTNIQPVGTPFEELPSERPTLEPATSPLVVTEVPEEPSQRATTVSTTMATTAATSTGDPTVATVPATVATATPSTPAAPPFTATTAVIRTTGVRRLLPLPLTTVATARATTPEAPSPPTTAAVLDTEAPTPRLVSTATSRPRALPRPATTQEPDIPERSTLPLGTTAPGPTEVAQTPTPETFLTTIRDEPEVPVSGGPSGDFELPEEETTQPDTANEVVAVGGAAAKASSPPGTLPKGARPGPGLLDNAIDSGSSAAQLPQKSILERKEVLVAVIVGGVVGALFAAFLVTLLIYRMKKKDEGSYTLEEPKQASVTYQKPDKQEEFYA
B5: Syndecan-1 (Homo sapiens), P18827 (parent)
chain: B3 partner
B6: Syndecan-2 (Homo sapiens), P34741 (parent)
chain: B2 chain
B7: Syndecan-3 (Homo sapiens), O75056 (parent)
chain: B4 chain
partner: B1 chain

Variants of: B1
Conditions: with sdc2_human SDC2, P34741

Row | Variant | effect of a mutation on the interaction
1 | G157L | decreasing interaction
2 | G153L | decreasing interaction

Variants of: B1
Conditions: with sdc3_human SDC3, O75056

Row | Variant | effect of a mutation on the interaction
3 | G157L | decreasing interaction
4 | G153L | decreasing interaction

Variants of: B2
Conditions: with sdc4_human SDC4, P31431

Row | Variant | effect of a mutation on the interaction
5 | G152L | decreasing interaction
6 | G156L | decreasing interaction

Variants of: B3
Conditions: with sdc1_human SDC1, P18827

Row | Variant | effect of a mutation on the interaction
7 | G152L | decreasing interaction
8 | G156L | decreasing interaction

Variants of: B4
Conditions: with sdc2_human SDC2, P34741

Row | Variant | effect of a mutation on the interaction
9 | G392L | decreasing interaction
10 | G396L | decreasing interaction

Variants of: B5
Conditions: with sdc2_human SDC2, P34741

Row | Variant | effect of a mutation on the interaction
11 | G259L | decreasing interaction
12 | G263L | decreasing interaction

Variants of: B5
Conditions: with sdc3_human SDC3, O75056

Row | Variant | effect of a mutation on the interaction
13 | G259L | decreasing interaction
14 | G263L | decreasing interaction

Variants of: B6
Conditions: with sdc3_human SDC3, O75056

Row | Variant | effect of a mutation on the interaction
15 | G152L | decreasing interaction
16 | G156L | decreasing interaction

Variants of: B7
Conditions: with sdc4_human SDC4, P31431

Row | Variant | effect of a mutation on the interaction
17 | G396L | decreasing interaction
